Publication PMC7047619 (Arteriosclerosis, thrombosis, and vascular biology, 2020)

Target: wild-type αIIbβ3 on HEK 293 cells (Homo sapiens, UniProt P08514;P05106)
Test: flow cytometry on cells

| Binder | binding result |
| --- | --- |
| murine mAb 7E3 (antibody, V domains shown) VH: EVQLQQSGTVLARPGASVKMSCEASGYTFTNYWMHWVKQRPGQGLEWIGAIYPGNSDTSYIQKFKGKAKLTAVTSTTSVYMELSSLTNEDSAVYYCTLYDGYYVFAYWGQGTLVTVSA VL: EIVLTQSPVTLSVTPGDSVSLSCRASRDISNNLHWFQQTSHESPRLLIKYASQSMSGIPSRFSGSGSGTDFTLSINSVETEDFGMYFCQQTNSWPYTFGGGTKLEIK | binds |
| abciximab (Fab, V domains shown) VH: EVQLQQSGTVLARPGASVKMSCEASGYTFTNYWMHWVKQRPGQGLEWIGAIYPGNSDTSYIQKFKGKAKLTAVTSTTSVYMELSSLTNEDSAVYYCTLYDGYYVFAYWGQGTLVTVSA VL: EIVLTQSPVTLSVTPGDSVSLSCRASRDISNNLHWFQQTSHESPRLLIKYASQSMSGIPSRFSGSGSGTDFTLSINSVETEDFGMYFCQQTNSWPYTFGGGTKLEIK | binds |
